These results are taken from US20180155451A1 (published 2018).

In general, Kd refers to the equilibrium constant for the complex coming apart. A high value points to a looser complex.

Assay [1] has as its target T1, FcgRIIaH (human, UniProt P12318 34-217).
T1 construct: extracellular domain; Soluble extracellular domain with C-terminal His tag; also called FcγRIIa H; FcγRIIa type H; not shown: His tag attached to the C terminus
T1 sequence (looked up): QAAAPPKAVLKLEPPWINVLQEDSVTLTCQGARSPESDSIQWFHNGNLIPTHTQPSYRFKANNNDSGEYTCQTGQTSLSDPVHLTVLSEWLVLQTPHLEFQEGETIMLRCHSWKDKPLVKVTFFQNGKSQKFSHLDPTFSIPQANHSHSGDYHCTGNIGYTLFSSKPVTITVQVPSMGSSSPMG
The assay is described as follows: SPR (Biacore), antibody captured, FcgR as analyte. As for the experimental part:
(§1) Analysis of interaction between obj ective antibody and the FcγR was carried out using Biacore T100 (GE Healthcare), Biacore T200, Biacore A100, and Biacore 4000. HBS-EP+ (GE Healthcare) was used as the running buffer, and the measurement temperature was set to 25° C. Chips produced by immobilizing the antigen peptide by the amine coupling method to a Series S sensor Chip CM5 (GE Healthcare), chips produced by allowing preliminarily biotinylated antigen peptides to interact with and immobilize onto a Series S Sensor Chip SA (certified) (GE Healthcare), chips produced by immobilizing Protein L (ACTIGEN, BioVision) to Series S Sencor Chip CM5 (GE Healthcare), or chips produced by immobilizing Protein A/G (Thermo Scientific) to Series S Sencor Chip CM5 (GE Healthcare) were used. Antibodies of interest were captured onto these chips, and allowed to interact to each FcγR diluted with running buffer. To regenerate and repeatedly use the chip, the antibodies captured onto the chip were washed off by reacting 10 mM glycine-HCl, pH 1.5.

The target in assay [2] is T2, FcgRIIIaV (human, UniProt P08637 17-208).
T2 construct: extracellular domain; Soluble extracellular domain with C-terminal His tag; polymorphic site made after J. Clin. Invest; also called FcγRIIIa V; not shown: His tag attached to the C terminus
The assay is described as follows: SPR (Biacore), antibody captured, FcgR as analyte. As for the experimental part:
as §1
For orientation: Surface plasmon resonance follows binding to a sensor surface in real time, without labels.

Assay [3] has as its target T3, FcgRIIb (human, UniProt P31994 43-217).
T3 construct: extracellular domain; Soluble extracellular domain with C-terminal His tag; also called FcγRIIb; CD32B; not shown: His tag attached to the C terminus
T3 sequence (looked up): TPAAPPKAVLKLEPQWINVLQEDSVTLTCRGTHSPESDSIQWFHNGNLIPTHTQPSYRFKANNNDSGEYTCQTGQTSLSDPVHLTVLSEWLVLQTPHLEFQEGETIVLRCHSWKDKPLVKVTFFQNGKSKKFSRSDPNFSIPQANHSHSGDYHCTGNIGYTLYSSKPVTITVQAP
The assay is described as follows: SPR (Biacore), antibody captured, FcgR as analyte. As for the experimental part: as §1

For assay [4], the target named is T4, FcgRIIaR (human, UniProt P12318 34-217).
T4 construct: extracellular domain; Soluble extracellular domain with C-terminal His tag; also called FcγRIIa R; FcγRIIa type R; not shown: His tag attached to the C terminus
T4 sequence (looked up): T1 sequence (looked up) with H134R
The assay is described as follows: SPR (Biacore), antibody captured, FcgR as analyte. As for the experimental part:
as §1

The target in assay [5] is T5, FcgRIIIaF (human, UniProt P08637 17-208).
T5 construct: extracellular domain; Soluble extracellular domain with C-terminal His tag; polymorphic site made after J. Clin. Invest; also called FcγRIIIa F; not shown: His tag attached to the C terminus
Kind of assay: SPR (Biacore), antibody captured, FcgR as analyte. Here is the method: as §1

For assay [6], the target named is T6, FcgRIa (human, UniProt P12314 16-292).
T6 construct: extracellular domain; Soluble extracellular domain with C-terminal His tag, expressed in FreeStyle293 cells; also called FcγRIa; FcγRI; not shown: His tag attached to the C terminus
The assay is described as follows: SPR (Biacore), antibody captured, FcgR as analyte. As for the experimental part: as §1

The target of assay [7] is T1, FcgRIIaH. Kind of assay: SPR (Biacore); KD of H240-Kn120/H240-Hl068/L73-k0 divided by KD of this antibody. As for the experimental part: (§2) Analysis of interaction between obj ective antibody and the FcγR was carried out using Biacore T100 (GE Healthcare), Biacore T200, Biacore A100, and Biacore 4000.
The target in assay [8] is T2, FcgRIIIaV. The description is as above. Here is the method:
as §2

The target in assay [9] is T3, FcgRIIb. The description is as above. As for the experimental part: as §2
Assay [10] concerns the target T4, FcgRIIaR. The assay is described as above. Here is the method:
as §2

In assay [11] the target is T5, FcgRIIIaF. The assay is described as above. As for the experimental part: as §2
Assay [12] has as its target T6, FcgRIa. Described as above. As for the experimental part: as §2

Changes are numbered by the printed parent chain. Names and notes keep the numbering of the source.

T2 sequence (P08637 17-208 F176V limits assumed): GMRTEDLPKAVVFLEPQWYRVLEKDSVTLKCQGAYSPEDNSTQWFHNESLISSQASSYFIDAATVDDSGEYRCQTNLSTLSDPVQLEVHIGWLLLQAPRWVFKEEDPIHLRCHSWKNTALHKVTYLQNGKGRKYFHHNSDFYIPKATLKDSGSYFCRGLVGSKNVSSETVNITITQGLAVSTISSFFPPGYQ
T6 sequence (P12314 16-292): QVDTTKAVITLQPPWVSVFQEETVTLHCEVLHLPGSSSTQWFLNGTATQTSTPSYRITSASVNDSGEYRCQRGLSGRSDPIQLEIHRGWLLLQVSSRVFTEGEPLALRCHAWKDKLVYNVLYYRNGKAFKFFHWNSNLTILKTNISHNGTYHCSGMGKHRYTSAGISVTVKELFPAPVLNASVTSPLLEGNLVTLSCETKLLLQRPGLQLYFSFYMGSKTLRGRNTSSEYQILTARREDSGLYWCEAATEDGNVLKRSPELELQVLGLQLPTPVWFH
T5 sequence (P08637 17-208): as the sequence (P08637 17-208 F176V limits assumed) above, with V160F counted along it

B1: H240-Kn120/H240-Hl182/L73-k0 (antibody, human IgG1, kappa)
heavy 1: QDQLVQSGAEVKKPGASVKVSCKASGFNIKDTYIQWVRQAPGQGLEWMGRIDPLRKQTKYREKFEGRVTITADTSTNTAYMELSSLRSEDTAVYYCVRSGREFDYWGQGTLVTVSSASTKGPSVFPLAPSSKSTSGGTAALGCLVKDYFPEPVTVSWNSGALTSGVHTFPAVLQSSGLYSLSSVVTVPSSSLGTQTYICNVNHKPSNTKVDKKVEPKSCDKTHTCPPCPAPEYYWGPMVFLFPPKPKDTLMISRTPEVTCVVVDVSDEDPEVKFNWYVDGVEVHNAKTKPREEQYNATYRVVSVLTVLHQDWLNGKEYKCKVSNKDLPAPIEKTISKAKGQPREPQVCTLPPSRDELTKNQVSLWCLVKGFYPSDIAVEWESNGQPENNYKTTPPVLDSDGSFFLYSKLTVDKSRWQQGNVFSCSVMHEALHNHYTQKSLSLSP
heavy 2: QDQLVQSGAEVKKPGASVKVSCKASGFNIKDTYIQWVRQAPGQGLEWMGRIDPLRKQTKYREKFEGRVTITADTSTNTAYMELSSLRSEDTAVYYCVRSGREFDYWGQGTLVTVSSASTKGPSVFPLAPSSKSTSGGTAALGCLVKDYFPEPVTVSWNSGALTSGVHTFPAVLQSSGLYSLSSVVTVPSSSLGTQTYICNVNHKPSNTKVDKKVEPKSCDKTHTCPPCPHPELLGGPSVFLFPPKPKDTLMISRTPEVTCVVVDVSHEEPEVKFNWYVDGVEVHNAKTKPREEQYNSTYRVVSVLTVLHQDWLNGKEYKCKVSNDALPKPIEETISKAKGQPREPQVYTLPPSRCELTKNQVSLSCAVKGFYPSDIAVEWESNGQPENNYKTTPPVLDSDGSFFLVSKLTVDKSRWQQGNVFSCSVMHEALHNHYTQKSLSLSP
light: DIQMTQSPSSLSASVGDRVTITCRASQDIHKYIAWYQQKPGQAPRLLIQYTSTLQPGVPSRFSGSGSGTDYTFTISSLQPEDIATYYCLQYEQLRTFGGGTKVEIKRTVAAPSVFIFPPSDEQLKSGTASVVCLLNNFYPREAKVQWKVDNALQSGNSQESVTEQDSKDSTYSLSSTLTLSKADYEKHKVYACEVTHQGLSSPVTKSFNRGEC
notes: Heterodimerized anti-epiregulin IgG1 antibody; A231H introduced into H240-Hl068; also called H240-Kn120/H240-HI182/L73-k0
With B1, the Kd with FcgRIIaH [1] stood at 77 nM; with FcgRIIIaV [2] it was 0.29 nM; with FcgRIIb [3], 240 nM; with FcgRIIaR [4] it was 40 nM; with FcgRIIIaF [5] it was 3.1 nM; with FcgRIa [6], 0.18 nM. The “Relative KD” value with FcgRIIaH [7] came out at 0.5; with FcgRIIIaV [8], 1.2; with FcgRIIb [9] it was 0.6; with FcgRIIaR [10], 0.5; with FcgRIIIaF [11], 0.7; in the assay with FcgRIa [12] it was 0.9.

B2: H240-Kn138/H240-Hl147/L73-k0 (antibody, human IgG1, kappa)
heavy 1: B1 heavy 1 with L327W
heavy 2: B1 heavy 2 with H230A, L327W
light: B1 light
notes: Anti-epiregulin IgG1 antibody; L328W introduced into both H chains of H240-Kn120/H240-Hl068/L73-k0; also called H240-Kn138/H240-HI147/L73-k0
Consider B2, for which the Kd in the assay with FcgRIIaH [1] worked out at 130 nM; in the assay with FcgRIIIaV [2] it was 16 nM; with FcgRIIb [3] it was 110 nM; in the assay with FcgRIIaR [4], 11 nM; with FcgRIIIaF [5], 22 nM; with FcgRIa [6] it was 0.31 nM. Moreover, the “Relative KD” value in the assay with FcgRIIaH [7] came to 0.3; with FcgRIIIaV [8], 0; with FcgRIIb [9], 1.4; with FcgRIIaR [10], 1.8; with FcgRIIIaF [11], 0.1; with FcgRIa [12] it was 0.5.

B3: H240-Kn138/H240-Hl068/L73-k0 (antibody, human IgG1, kappa)
heavy 1: B1 heavy 1 with L327W
heavy 2: B1 heavy 2 with H230A
light: B1 light
notes: Heterodimerized anti-epiregulin IgG1 antibody; L328W introduced into H240-Kn120; also called H240-Kn138/H240-HI068/L73-k0
With B3, the Kd is 25 nM with FcgRIIaH [1]; 0.43 nM with FcgRIIIaV [2]; 130 nM with FcgRIIb [3]; 19 nM with FcgRIIaR [4]; 3.7 nM with FcgRIIIaF [5]; 0.16 nM with FcgRIa [6]. The “Relative KD” value with FcgRIIaH [7] stood at 1.6; with FcgRIIIaV [8], 0.8; with FcgRIIb [9], 1.2; in the assay with FcgRIIaR [10], 1.1; with FcgRIIIaF [11] it was 0.6; with FcgRIa [12], 1.
